The text below walks through data of paper PMC10728069.

In data set [1] the test system is GST-MYBS1 (rice). The data set is described as follows: pull-down. Conditions: buffer not stated.
Data set [2] deals with His-MoSPAB1ΔSP (Magnaporthe oryzae) (UniProt G4N0C3). The data set can be described thus: pull-down. Conditions: buffer not stated.

With Bsr-d1 promoter 1689 bp, the binding signal (fold of bound GST-MYBS1) in data set [1] came out at 0.65. In data set [2], this substance registered a binding signal (fold of bound MoSPAB1ΔSP) of 1.11.
